Results reported in the supplement of paper PMC10567573.

B1: ZNF449 (parent)
chain: TLHQRTHTEERPFKCNYCGKSFRQ

Variants of: B1
Assay: protein stability index of a GFP-peptide fusion (GPS, HEK-293T) (PSI 1-6); higher = more stable
Conditions: c terminus: a fixed tail appended
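Also: lentivirally expressed fusions sorted by FACS into six bins by GFP to DsRed ratio, PSI derived from sequencing read proportions per bin multiplied by bin number.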

Protein stability index, by site and new letter:
K20: L 2.07 | V 2.41 | N 2.37 | W 1.88 | Q 1.82 | M 2.79 | R 3.28 | Y 1.9 | C 1.86 | D 2.83 | I 2.1 | H 1.91 | E 1.79 | S 2.12 | T 2.58 | A 1.97 | P 2.31 | F 1.78 | G 1.61
F22: E 3.02 | K 3.37 | T 2.49 | G 2.35 | H 3.05 | C 3.22 | V 3.59 | W 1.74 | S 2.85 | N 3.51 | P 3.03 | Y 2.35 | A 3.02 | I 2.02 | Q 2.88 | L 1.82 | M 2.28 | R 1.48 | D 3.12
C15: S 3.7 | I 3.13 | M 2.82 | Q 3.37 | F 2.98 | H 3.4 | V 2.67 | T 3.29 | Y 3.26 | P 3.1 | W 2.59 | K 3.55 | L 1.4 | D 3.87 | R 2.61 | A 2.49 | G 3.43 | N 3.41
P12: V 2.57 | Y 2.77 | M 2.45 | S 2.52 | T 2.26 | L 3.05 | I 3.29 | Q 2.79 | N 2.41 | K 2.89 | W 2.89 | R 2.21
F13: H 1.39 | R 1.69 | Y 2.22 | L 2.07 | S 2.26 | C 3.05 | Q 2.92 | M 2.18 | K 2.28 | D 2.92 | I 3.01 | T 3.78 | A 2.14 | P 2.24 | N 3.54 | G 2.79
N16: F 2.75 | Q 2.98 | C 1.73 | R 1.65 | A 2.44 | M 2.1 | E 2.13 | L 1.85 | P 3.32 | D 2.16 | I 2.27 | G 1.95 | H 1.93 | T 2.67 | Y 2.61 | K 2.76 | S 3.03 | V 2.86 | W 2.04
Y17: F 2.22 | N 3.21 | K 2.67 | R 2.92 | S 2.55 | L 2.15 | W 2.61 | M 2.4 | Q 3.16 | T 2.62 | I 2.14 | D 2.09 | C 2 | V 2.32 | E 2.3 | P 2.98 | A 1.93
S21: T 2.91 | M 2.19 | C 2.02 | Q 2.27 | L 3.6 | D 2.75 | V 2.29 | I 2.26 | G 1.82 | N 2.69 | W 2.29 | R 2.38 | H 2.58 | P 2.15 | K 2.32 | F 1.68 | A 1.92 | E 3.13
G19: T 2.4 | H 2.92 | D 3.4 | N 2.48 | I 3.3 | C 2.38 | F 2.38 | A 2.14 | K 2.79 | Q 2.96 | W 1.97 | Y 2.7 | M 2.73 | R 2.6 | S 2.06 | E 2.68 | P 2.67 | L 2.72 | V 2.09
Q24: E 2.88 | F 2.56 | D 2.24 | S 3.49 | N 2.27 | M 2.77 | H 2.12 | V 1.75 | R 1.67 | G 2.62
